The source of these data is US8124583B2, “Composition and method for self-assembly and mineralization of peptide-amphiphiles” (Northwestern University, priority 2002, dated 2012).

Square brackets hold non-standard residues; d marks the D form. * marks the point of attachment. Palmitoyl = CCCCCCCCCCCCCCCC(=O)*; pS = N[C@@H](COP(=O)(O)O)C(=O)O; C16 = 16 carbon alkyl tail

Holding throughout (type): physicochemical
Data set [1] can be described thus: Self assembly with CaCl2 and hydroxyapatite mineralization of nanofiber gel (TEM, electron diffraction). The procedure: A liquid composition for the self assembly of (1) and mineralization of hydroxyapatite was prepared by dissolving […] NaH2PO4 (Aldrich) into 200 microliters of (1) at a concentration of 10 mg/ml in water. The pH of the solution was adjusted to 7.7.
The liquid composition containing (1) and NaH2PO4 was mixed with 40 micromoles of CaCl2 (Aldrich).
Samples of the gel after 2 hours, 1 day, and 5 days were mounted on carbon-coated TEM grids. TEM studies of the 1 and 5 day samples show a multi-crystalline material composed of plate like crystals˜5 nm thick and 50 to 100 nm long. The plate like crystals were similar to those observed in the mineralization experiments on the pre-assembled template.

The nature of data set [2]: Gelation of charged peptide amphiphile solutions with ions or with each other. To be noted: positive PA in Ca+2 (reaction 4); negative PA in PO4−3 (reaction 5). The source says:
In another example of this invention, the composition and method consists of using highly charged peptide amphiphile species (16 carbon alkyl tail with a sequence like CCCCGGGSS(P)DS(P)D (SEQ ID NO: 14) with a −7 charge, for example) dissolved in a solution of negative ions (phosphate ions with a −3 charge), call this solution X. A second solution with a positively-charged peptide amphiphile species (such as 16 carbon alkyl tail with a sequence like ACAAGGGKRGDS (SEQ ID NO: 21)—an amine terminated PA at +1 charge) in a solution with positively-charged ions, such as Ca^2+; call this solution Y. In both solutions the peptide heads are charged and the structural element of the peptide can be varied, to give different charged peptide-amphiphile species, depending on the application.
The positive and negative peptide amphiphiles alone (no added salt ions) will gel each other, reaction 1, when mixed in the right ionic ratios (1:7, (−):(+) in this instance), forming mixed peptide amphiphile nanofibers, theoretically composed of 7 positive peptide amphiphiles for every 1 of the negative peptide amphiphiles. The positive peptide amphiphile solution Y may be gelled, reaction 2, with the negative ions (for example a solution containing phosphate ion PO4^−3). […] Mixing the positive and negative ions (calcium cation with phosphate anion) will make calcium phosphate mineral (reaction 6). […]

The nature of the next data set: Solubility in water. To be noted: for concentration at which the molecules dissolve: pH 7.5-adjusted water. The procedure: (§1) The two molecules dissolve in pH 7.5-adjusted water at a concentration of about 10 mg/mL. Molecule 1 has a charge of (−1) and molecule 2 has a charge of (+2) under these conditions.
Cleavage and deprotection of the molecules was accomplished with a mixture of trifluoroacetic acid (TFA) and triisopropylsilane (TIS) in a ratio of 95:5 for three hours at room temperature. The cleavage mixture and two subsequent TFA washings were filtered into a round bottom flask. The solution was roto-evaporated to a thick viscous solution. This solution was triturated with cold diethylether. The white precipitate was collected by filtration, washed with copious cold ether and dried under vacuum. The molecules were then dissolved in water at a concentration of 10 mg/mL, adjusting the pH to improve solubility. The solution was initially acidic in both cases. In the case of molecule 1, the pH was raised to about pH 8 with 2M and 100 mM KOH, then back-titrated to pH 7.

The nature of data set [3]: Self assembly/gelation with monovalent salts (KCl, NaCl). To be noted: mixing with 200 mM KCl or NaCl solutions. How it is done:
as §1
In all cases self assembled gels comprised of the nanofibers were formed similar to those described elsewhere (Hartgerink et al., 2001; Hartgerink et al., 2002). In contrast no self assembly or gel formation was observed when other negatively or positively charged peptide-amphiphiles were exposed to the NaCl or the KCl at concentrations up to 6 M. The fact that molecules 1 and 2 assemble in the presence of the monovalent salts sets them apart from the other molecules studied. […] The reason for this difference may be in the structure of these molecules. Both these molecules contain IKVAV (SEQ ID NO: 1) sequence at the c-terminus of the peptide segment. […]
Transmission Electron Micrographs of samples of the supramolecular compositions from the multi-dimensional peptide-amphiphiles, Molecule 1 and Molecule 2, were prepared as follows. A small sample of the supramolecular composition gel, prepared in bulk as described above, was smeared onto a holey carbon coated TEM grid (Quantifoil). […]

“C15H31C(O)-CCCCGGGS(P)RGD-COOH (Palmitoyl-CCCCGGG[pS]RGD-OH; cysteine pairing not given here) [PA 18]”: the “self assembled gel formation” value in data set [1] (addition of CaCl2 to 10 mg/ml peptide-amphiphile preloaded with NaH2PO4, pH 7.7) was “formed immediately”. In addition, the “time until gel turned a white color (mineralization started)” value in data set [1] (after CaCl2 addition) was “about 2 hours”. As to “CCCCGGGSS(P)DS(P)D (C16-CCCCGGGS[pS]D[pS]D-OH; cysteine pairing not given here; also: C16 alkyl tail)”, in data set [2], the “gelation in ions of the same charge sign” value is recorded as “does not gel”. Same read-out and setting: the same measure for “ACAAGGGKRGDS [positively-charged peptide amphiphile, 16 carbon alkyl tail, amine terminated PA]”: “does not gel”.

Take “C15H31C(O)-CCCCGGGEIKVAV-NH2 (Palmitoyl-CCCCGGGEIKVAV-NH2; cysteine pairing not given here) [Molecule 2]”: in the data set “Solubility in water”, the “concentration at which the molecules dissolve” value was “about 10 mg/mL”. Also, the “pH dependence of solubility” value in the data set “Solubility in water” (water, 10 mg/mL, pH adjusted with KOH) was “most soluble at low pH”. Further, the “gel formation with monovalent salt” value in data set [3] is reported as “self-supporting gel forms”. For the substance “C15H31C(O)-CCCCGGGEIKVAV-COOH (Palmitoyl-CCCCGGGEIKVAV-OH; cysteine pairing not given here) [PA 22]”, the “concentration at which the molecules dissolve” value in “Solubility in water” is on record as “about 10 mg/mL”. Further, in data set [3], the “gel formation with monovalent salt” value is recorded as “self-supporting gel forms”.
